Source: patent US20220105163A1

Molecular target: Recombinant human IL-6 (human) (UniProt P05231)
Experiment: cell-based or functional assay

Recombinant human IL-6 (human), sequence (P05231 30-212 limits assumed): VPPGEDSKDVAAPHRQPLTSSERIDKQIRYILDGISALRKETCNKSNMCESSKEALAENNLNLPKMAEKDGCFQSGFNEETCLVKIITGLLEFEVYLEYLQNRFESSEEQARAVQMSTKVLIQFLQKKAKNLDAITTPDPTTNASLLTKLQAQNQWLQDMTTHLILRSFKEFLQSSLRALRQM

IC50 (µg/mL), IL-6 induced TF-1 proliferation: 0.629 µg/mL
B1: ALD518 (antibody, INN chains, looked up, V domains shown)
VH: EVQLVESGGGLVQPGGSLRLSCAASGFSLSNYYVTWVRQAPGKGLEWVGIIYGSDETAYATSAIGRFTISRDNSKNTLYLQMNSLRAEDTAVYYCARDDSSDWDAKFNLWGQGTLVTVSS
VL: AIQMTQSPSSLSASVGDRVTITCQASQSINNELSWYQQKPGKAPKLLIYRASTLASGVPSRFSGSGSGTDFTLTISSLQPDDFATYYCQQGYSLRNIDNAFGGGTKVEIK
